To fix the notation:
B1: NRC3_random_hg19_454_o1 (dsDNA)
DNA 1: GCTGTCCTTTGTAGCAACATGTATGGAAATGGAGGCGCGATTGACAGCGTAGAATGAAGG
DNA 2: CCTTCATTCTACGCTGTCAATCGCGCCTCCATTTCCATACATGTTGCTACAAAGGACAGC
B2: NRC3_random_hg19_308_o1 (dsDNA)
DNA 1: GCATGAACCACTTGAAGGGTGTGGCCTCCATCTTGCGCGATTGACAGCGTAGAATGAAGG
DNA 2: CCTTCATTCTACGCTGTCAATCGCGCAAGATGGAGGCCACACCCTTCAAGTGGTTCATGC
B3: NRC3_random_hg19_349_o1 (dsDNA)
DNA 1: GCAGTGTATGCTAAACACCTTCACTTACCTTCCTCAGCGATTGACAGCGTAGAATGAAGG
DNA 2: CCTTCATTCTACGCTGTCAATCGCTGAGGAAGGTAAGTGAAGGTGTTTAGCATACACTGC
B4: NRC3_random_hg19_116_o1 (dsDNA)
DNA 1: GCTGGGCACATGAGGGATGGGAGTTGATCTCTGTGGGCGATTGACAGCGTAGAATGAAGG
DNA 2: CCTTCATTCTACGCTGTCAATCGCCCACAGAGATCAACTCCCATCCCTCATGTGCCCAGC
B5: NRC3_wobSeed136_DR5_C23T_o1 (dsDNA)
DNA 1: GCTAGCCTAGGTCATTCAGGGGTCAGTATAGAAAGCGCGATTGACAGCGTAGAATGAAGG
DNA 2: CCTTCATTCTACGCTGTCAATCGCGCTTTCTATACTGACCCCTGAATGACCTAGGCTAGC
B6: NRC3_random_hg19_271_o1 (dsDNA)
DNA 1: GCCTCCCTCCCATCGCCTGAACCTGCTGGAATGAGCGCGATTGACAGCGTAGAATGAAGG
DNA 2: CCTTCATTCTACGCTGTCAATCGCGCTCATTCCAGCAGGTTCAGGCGATGGGAGGGAGGC
B7: NRC3_random_hg19_466_o1 (dsDNA)
DNA 1: GCAGCTTGACTTTGGTGACATTCTTCCTTCGTCCCTGCGATTGACAGCGTAGAATGAAGG
DNA 2: CCTTCATTCTACGCTGTCAATCGCAGGGACGAAGGAAGAATGTCACCAAAGTCAAGCTGC
B8: NRC3_random_hg19_279_o1 (dsDNA)
DNA 1: GCTGCAGTGGTAACAGTCTGACTTCTAAACTGCTATGCGATTGACAGCGTAGAATGAAGG
DNA 2: CCTTCATTCTACGCTGTCAATCGCATAGCAGTTTAGAAGTCAGACTGTTACCACTGCAGC
B9: NRC3_random_hg19_267_o1 (dsDNA)
DNA 1: GCGCCTCAGTCATGAGTCACATGAAAGTGACTCACCGCGATTGACAGCGTAGAATGAAGG
DNA 2: CCTTCATTCTACGCTGTCAATCGCGGTGAGTCACTTTCATGTGACTCATGACTGAGGCGC
B10: NRC3_random_hg19_40_o1 (dsDNA)
DNA 1: GCAAGAACCAGTGGATTCATAAGGGTGACAGTTCAGGCGATTGACAGCGTAGAATGAAGG
DNA 2: CCTTCATTCTACGCTGTCAATCGCCTGAACTGTCACCCTTATGAATCCACTGGTTCTTGC
B11: NRC3_wobSeed134_DR5_A9C_o1 (dsDNA)
DNA 1: GCGCTGCTCGGTCAACTGATGGTCAGCTAAAGCTCGGCGATTGACAGCGTAGAATGAAGG
DNA 2: CCTTCATTCTACGCTGTCAATCGCCGAGCTTTAGCTGACCATCAGTTGACCGAGCAGCGC
B12: NRC3_wobSeed122_DR5_T9A_o1 (dsDNA)
DNA 1: GCGCTAGTAGGTCAGTAAAAGGTCACACACCGGTCGGCGATTGACAGCGTAGAATGAAGG
DNA 2: CCTTCATTCTACGCTGTCAATCGCCGACCGGTGTGTGACCTTTTACTGACCTACTAGCGC
B13: NRC3_random_hg19_133_o1 (dsDNA)
DNA 1: GCTCAAGGAGAAAGACACTCCTTTGAAGCGTTGGAAGCGATTGACAGCGTAGAATGAAGG
DNA 2: CCTTCATTCTACGCTGTCAATCGCTTCCAACGCTTCAAAGGAGTGTCTTTCTCCTTGAGC
B14: NRC3_random_hg19_362_o1 (dsDNA)
DNA 1: GCGCCTTCTGCACCTCCTCAGTCCCTCTCCCTTTCCGCGATTGACAGCGTAGAATGAAGG
DNA 2: CCTTCATTCTACGCTGTCAATCGCGGAAAGGGAGAGGGACTGAGGAGGTGCAGAAGGCGC
B15: NRC3_random_hg19_496_o1 (dsDNA)
DNA 1: GCAGCATCTGACAAGGCTGACTACTCCCATCTGGATGCGATTGACAGCGTAGAATGAAGG
DNA 2: CCTTCATTCTACGCTGTCAATCGCATCCAGATGGGAGTAGTCAGCCTTGTCAGATGCTGC
B16: NRC3_random_hg19_382_o1 (dsDNA)
DNA 1: GCAATGAAGTGGATGCATGGTTGGTGGCTCAGCAGCGCGATTGACAGCGTAGAATGAAGG
DNA 2: CCTTCATTCTACGCTGTCAATCGCGCTGCTGAGCCACCAACCATGCATCCACTTCATTGC
B17: NRC3_random_hg19_214_o1 (dsDNA)
DNA 1: GCATCCGTTCCTTGGAGGGAGTCTGCAGACTGGCTGGCGATTGACAGCGTAGAATGAAGG
DNA 2: CCTTCATTCTACGCTGTCAATCGCCAGCCAGTCTGCAGACTCCCTCCAAGGAACGGATGC
B18: NRC3_random_hg19_146_o1 (dsDNA)
DNA 1: GCGCCTCTAGGTCTTTGAGGAATTGCCACACTGTCTGCGATTGACAGCGTAGAATGAAGG
DNA 2: CCTTCATTCTACGCTGTCAATCGCAGACAGTGTGGCAATTCCTCAAAGACCTAGAGGCGC
B19: NRC3_random_hg19_470_o1 (dsDNA)
DNA 1: GCCAGGAAGGGACAAAGGCCAGGCATGGTGGTTCATGCGATTGACAGCGTAGAATGAAGG
DNA 2: CCTTCATTCTACGCTGTCAATCGCATGAACCACCATGCCTGGCCTTTGTCCCTTCCTGGC
B20: NRC3_random_hg19_60_o1 (dsDNA)
DNA 1: GCGTGCTCACATGTCACATTCTGGTGATTCTTGCAAGCGATTGACAGCGTAGAATGAAGG
DNA 2: CCTTCATTCTACGCTGTCAATCGCTTGCAAGAATCACCAGAATGTGACATGTGAGCACGC
B21: NRC3_random_hg19_489_o1 (dsDNA)
DNA 1: GCAACAAAGCCTGTATGACAGCACATCTGTGTACAGGCGATTGACAGCGTAGAATGAAGG
DNA 2: CCTTCATTCTACGCTGTCAATCGCCTGTACACAGATGTGCTGTCATACAGGCTTTGTTGC
B22: NRC3_wobSeed27_DR1_G17C_o1 (dsDNA)
DNA 1: GCACTCGGAGGACAAACGTCAGAGCTACGCCAGTGAGCGATTGACAGCGTAGAATGAAGG
DNA 2: CCTTCATTCTACGCTGTCAATCGCTCACTGGCGTAGCTCTGACGTTTGTCCTCCGAGTGC

The record followed here is article PMC6555819, “Comprehensive study of nuclear receptor DNA binding provides a revised framework for understanding receptor specificity”.

RARg:RXRa, sequence (P13631 whole entry, chain 1 of 2): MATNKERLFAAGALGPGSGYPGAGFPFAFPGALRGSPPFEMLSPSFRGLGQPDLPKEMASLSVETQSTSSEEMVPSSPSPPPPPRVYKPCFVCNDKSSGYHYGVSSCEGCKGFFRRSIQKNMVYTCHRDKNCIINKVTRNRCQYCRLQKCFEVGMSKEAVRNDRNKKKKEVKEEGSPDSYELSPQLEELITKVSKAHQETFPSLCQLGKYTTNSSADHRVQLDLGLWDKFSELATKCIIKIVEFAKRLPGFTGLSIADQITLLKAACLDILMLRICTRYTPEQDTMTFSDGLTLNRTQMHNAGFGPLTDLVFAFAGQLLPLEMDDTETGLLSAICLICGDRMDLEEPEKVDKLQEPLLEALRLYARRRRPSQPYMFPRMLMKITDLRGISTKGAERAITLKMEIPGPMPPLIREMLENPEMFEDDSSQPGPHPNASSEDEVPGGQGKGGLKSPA
RARg:RXRa, sequence (P19793 whole entry, chain 2 of 2): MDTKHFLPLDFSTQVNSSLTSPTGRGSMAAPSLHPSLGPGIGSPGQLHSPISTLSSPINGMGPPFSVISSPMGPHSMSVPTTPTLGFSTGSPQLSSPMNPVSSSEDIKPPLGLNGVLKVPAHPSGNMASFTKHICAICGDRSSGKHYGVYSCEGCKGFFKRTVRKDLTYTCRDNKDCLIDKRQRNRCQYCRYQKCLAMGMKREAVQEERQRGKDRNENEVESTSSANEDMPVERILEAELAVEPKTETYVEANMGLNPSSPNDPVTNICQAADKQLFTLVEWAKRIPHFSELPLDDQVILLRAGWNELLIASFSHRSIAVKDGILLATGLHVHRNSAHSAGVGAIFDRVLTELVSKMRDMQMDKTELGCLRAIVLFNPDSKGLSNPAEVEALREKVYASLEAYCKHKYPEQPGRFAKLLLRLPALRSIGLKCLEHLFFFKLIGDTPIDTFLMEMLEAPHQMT
FXR:RXRa, sequence (Q96RI1 whole entry, chain 1 of 2): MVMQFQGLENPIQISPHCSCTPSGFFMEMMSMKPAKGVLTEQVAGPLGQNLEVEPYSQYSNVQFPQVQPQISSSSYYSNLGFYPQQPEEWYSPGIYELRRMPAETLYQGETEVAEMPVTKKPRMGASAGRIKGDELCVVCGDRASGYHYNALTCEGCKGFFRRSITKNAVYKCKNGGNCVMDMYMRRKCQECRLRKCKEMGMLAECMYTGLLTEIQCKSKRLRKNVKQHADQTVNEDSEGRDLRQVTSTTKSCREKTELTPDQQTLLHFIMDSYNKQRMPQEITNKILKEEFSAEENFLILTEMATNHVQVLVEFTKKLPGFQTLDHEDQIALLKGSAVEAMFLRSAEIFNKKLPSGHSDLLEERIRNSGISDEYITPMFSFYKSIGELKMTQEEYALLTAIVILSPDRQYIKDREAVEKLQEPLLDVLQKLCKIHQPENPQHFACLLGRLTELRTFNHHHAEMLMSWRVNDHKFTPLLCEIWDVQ
FXR:RXRa, sequence (P19793 whole entry, chain 2 of 2): as the sequence (P19793 whole entry, chain 2 of 2) above

The target of one data set is RARa:RXRa (Homo sapiens, UniProt P10276;P19793 full;full). Put plainly: no ligand; PBM; 270 nM : 90 nM RXRa; PBS pH 7.4, 2% milk, 0.02% Triton X-100, 1 mM DTT, BSA, 0.4 mg/ml salmon testes DNA. Conditions: tags: His kept;His cleaved; copies: 1;1; label: surface-attached array probe. An outline of the steps: (§1)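 Scanned fluorescence from custom Agilent 4×180K protein-binding microarrays was regression-normalized. Binding z-scores use random background probes as reference. Ligand-free nuclear receptor dimers were incubated on the arrays for 1 h and detected with antibodies against each partner (one per run).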
RARa:RXRa, sequence (P10276 whole entry, chain 1 of 2): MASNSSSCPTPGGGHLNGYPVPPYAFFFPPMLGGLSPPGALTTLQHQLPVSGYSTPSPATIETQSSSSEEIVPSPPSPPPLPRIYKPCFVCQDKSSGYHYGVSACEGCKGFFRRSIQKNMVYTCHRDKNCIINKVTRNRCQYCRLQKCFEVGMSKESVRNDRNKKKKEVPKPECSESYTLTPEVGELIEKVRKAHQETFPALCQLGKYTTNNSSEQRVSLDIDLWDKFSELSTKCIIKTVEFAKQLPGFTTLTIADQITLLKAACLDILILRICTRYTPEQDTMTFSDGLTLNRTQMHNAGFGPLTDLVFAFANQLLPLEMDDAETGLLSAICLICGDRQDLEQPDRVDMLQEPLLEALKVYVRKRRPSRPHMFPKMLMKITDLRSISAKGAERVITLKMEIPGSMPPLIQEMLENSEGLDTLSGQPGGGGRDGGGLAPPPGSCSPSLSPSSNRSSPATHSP
RARa:RXRa, sequence (P19793 whole entry, chain 2 of 2): as the sequence (P19793 whole entry, chain 2 of 2) above
As for B1, the binding signal was 0.46 PBM z-score against 500 random probes.
Same read-out and setting: the value for B2 was 0.27 PBM z-score against 500 random probes; that for B3 was -0.1 PBM z-score against 500 random probes; that for B4 was -0.48 PBM z-score against 500 random probes.
Same read-out and setting: the value for B5 was 7.49 PBM z-score against 500 random probes; that for B6 was 0.16 PBM z-score against 500 random probes; that for B7 was 0.17 PBM z-score against 500 random probes.
The same measure, in the same setting: the value for B8 was -0.56 PBM z-score against 500 random probes; that for B9 was -0.31 PBM z-score against 500 random probes.
As to B10, the binding signal was 0.33 PBM z-score against 500 random probes.
The same measure, in the same setting: the value for B11 was 0.23 PBM z-score against 500 random probes.
Still for that read-out and setting: the value for B12 was 7.6 PBM z-score against 500 random probes; that for B13 was -0.29 PBM z-score against 500 random probes; that for B14 was 0.1 PBM z-score against 500 random probes.
On the same count and under the same terms, the value for B15 was -0.43 PBM z-score against 500 random probes; that for B16 was -0.69 PBM z-score against 500 random probes.
Turning to B17, the binding signal was -2.33 PBM z-score against 500 random probes.
With B18, the binding signal is -0.8 PBM z-score against 500 random probes.
As to B19, the binding signal is -0.18 PBM z-score against 500 random probes.
The same measure, in the same setting: the value for B20 was 0.05 PBM z-score against 500 random probes; that for B21 was -0.79 PBM z-score against 500 random probes.
On to B22, for which the binding signal is -0.3 PBM z-score against 500 random probes.

The target in the next data set is PPARa:RXRa (Homo sapiens, UniProt Q07869;P19793 full;full). Described as above. Conditions: tags: GST kept;His cleaved; copies: 1;1; label: surface-attached array probe. An outline of the steps: as §1
PPARa:RXRa, sequence (Q07869 whole entry, chain 1 of 2): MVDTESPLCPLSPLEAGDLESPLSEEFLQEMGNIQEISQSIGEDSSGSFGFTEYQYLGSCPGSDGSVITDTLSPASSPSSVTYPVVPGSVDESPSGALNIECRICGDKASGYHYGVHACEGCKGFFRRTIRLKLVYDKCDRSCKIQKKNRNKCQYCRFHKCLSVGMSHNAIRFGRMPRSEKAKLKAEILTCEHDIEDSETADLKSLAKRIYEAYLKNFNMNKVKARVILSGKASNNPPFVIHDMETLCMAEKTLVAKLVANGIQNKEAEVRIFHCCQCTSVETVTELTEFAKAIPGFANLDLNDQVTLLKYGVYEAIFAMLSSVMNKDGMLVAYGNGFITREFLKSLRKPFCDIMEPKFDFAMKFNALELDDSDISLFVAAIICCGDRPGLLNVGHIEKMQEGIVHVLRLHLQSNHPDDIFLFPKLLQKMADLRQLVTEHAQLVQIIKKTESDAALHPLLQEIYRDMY
PPARa:RXRa, sequence (P19793 whole entry, chain 2 of 2): as the sequence (P19793 whole entry, chain 2 of 2) above
Take B6: the binding signal was 0.08 PBM z-score against 500 random probes.
The same measure, in the same setting: the value for B11 was 0.3 PBM z-score against 500 random probes.

A further data set addresses FXR:RXRa (Homo sapiens, UniProt Q96RI1;P19793 full;full). The data set is described as above. To be noted: tags: His kept;His cleaved; copies: 1;1; label: surface-attached array probe. An outline of the steps: as §1
On to B2, for which the binding signal was -0.1 PBM z-score against 500 random probes.
The same measure, in the same setting: the value for B17 was -0.76 PBM z-score against 500 random probes.
The same measure, in the same setting: the value for B20 was -0.25 PBM z-score against 500 random probes.

A further data set deals with RARg:RXRa (Homo sapiens, UniProt P13631;P19793 full;full). The data set is described as above. To be noted: tags: His kept;His cleaved; copies: 1;1; label: surface-attached array probe. An outline of the steps:
as §1
B3: the binding signal is 0.03 PBM z-score against 500 random probes.
Same read-out and setting: the value for B5 was 8.33 PBM z-score against 500 random probes; that for B12 was 7.87 PBM z-score against 500 random probes; that for B14 was -0.73 PBM z-score against 500 random probes.
On the same count and under the same terms, the value for B21 was -0.12 PBM z-score against 500 random probes.
Still for that read-out and setting: the value for B22 was 0.21 PBM z-score against 500 random probes.
